Assay results published in the supplement of paper PMC7125110.
± gives the standard error. Variants at the floor of the assay were thinned out.

B1: glmS ribozyme (parent)
chain: AUAAAAGCGCCAGAACUACAGAAAUGUAGUUGACGAGGAGGAGGUUUAUCGAAUUUUCGGCGGAUGCCUCCAAA

How the values were obtained:
Details in all cases: with glucosamine-6-phosphate
[1] = variants of: B1; experiment: self-cleavage kobs at 40 uM GlcN6P; higher = faster cleavage; RNA array
Procedure, shortened: (§1)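 A hybridised Cy3 probe tracked barcoded ribozyme variants, transcribed in situ by E. coli RNA polymerase on sequenced MiSeq chips, at 37 °C. The variants received 40 μM to 10 mM glucosamine-6-phosphate in HEPES/KCl/Mg(OAc)2 buffer. kobs came from decay fits and kcat and KM from weighted Michaelis–Menten fits.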

[2] = variants of: B1; experiment: self-cleavage kobs at 640 uM GlcN6P; higher = faster cleavage; RNA array
Procedure, shortened: as §1

[3] = variants of: B1; experiment: self-cleavage kobs at 2500 uM GlcN6P; higher = faster cleavage; RNA array
Procedure, shortened: as §1

[4] = variants of: B1; experiment: self-cleavage kobs at 10000 uM GlcN6P; higher = faster cleavage; RNA array
Procedure, shortened: as §1

[5] = variants of: B1; experiment: self-cleavage kobs at 160 uM GlcN6P; higher = faster cleavage; RNA array
Procedure, shortened: as §1

Q: G7A G13A C68U was tested. Which “self-cleavage kobs at 40 uM GlcN6P” value [1] did it give?
A: < 1e-05 s⁻¹

Q: Which results are given for A36C A64C?
A: self-cleavage kobs at 40 uM GlcN6P [1]: < 1e-05 s⁻¹; self-cleavage kobs at 640 uM GlcN6P [2]: < 1e-05 s⁻¹; self-cleavage kobs at 2500 uM GlcN6P [3]: < 1e-05 s⁻¹; self-cleavage kobs at 10000 uM GlcN6P [4]: < 1e-05 s⁻¹

Q: How did the “self-cleavage kobs at 40 uM GlcN6P” value [1] turn out when G35C C61G C68G was run?
A: 7.74e-05 ± 3e-05 s⁻¹

Q: For G29A A39U G43U, which “self-cleavage kobs at 160 uM GlcN6P” value [5] is on record?
A: < 1e-05 s⁻¹

Q: Which results are given for A53G U54C?
A: self-cleavage kobs at 40 uM GlcN6P [1]: 0.000508 ± 7.8e-05 s⁻¹; self-cleavage kobs at 160 uM GlcN6P [5]: 0.000991 ± 0.00024 s⁻¹; self-cleavage kobs at 10000 uM GlcN6P [4]: 0.0169 ± 0.0033 s⁻¹

Q: With G29A A36G C58A as the variant, how does the “self-cleavage kobs at 160 uM GlcN6P” value [5] read?
A: < 1e-05 s⁻¹

Q: What about the “self-cleavage kobs at 640 uM GlcN6P” value [2] of the same variant?
A: < 1e-05 s⁻¹

Q: What about the “self-cleavage kobs at 2500 uM GlcN6P” value [3] of the same variant?
A: < 1e-05 s⁻¹

Q: What about the “self-cleavage kobs at 10000 uM GlcN6P” value [4] of the same variant?
A: < 1e-05 s⁻¹

Q: For G9A U30G G59C, which “self-cleavage kobs at 160 uM GlcN6P” value [5] is on record?
A: < 1e-05 s⁻¹

Q: And the “self-cleavage kobs at 640 uM GlcN6P” value [2]?
A: < 1e-05 s⁻¹

Q: How did the “self-cleavage kobs at 40 uM GlcN6P” value [1] turn out when A14C A36C G63A U65C was run?
A: < 1e-05 s⁻¹

Q: And the “self-cleavage kobs at 160 uM GlcN6P” value [5]?
A: < 1e-05 s⁻¹

Q: What about the “self-cleavage kobs at 10000 uM GlcN6P” value [4] of the same variant?
A: < 1e-05 s⁻¹

Q: With G7U G35A as the variant, how does the “self-cleavage kobs at 40 uM GlcN6P” value [1] read?
A: < 1e-05 s⁻¹

Q: What about the “self-cleavage kobs at 160 uM GlcN6P” value [5] of the same variant?
A: < 1e-05 s⁻¹

Q: And the “self-cleavage kobs at 640 uM GlcN6P” value [2]?
A: < 1e-05 s⁻¹

Q: What about the “self-cleavage kobs at 2500 uM GlcN6P” value [3] of the same variant?
A: < 1e-05 s⁻¹

Q: What about the “self-cleavage kobs at 10000 uM GlcN6P” value [4] of the same variant?
A: < 1e-05 s⁻¹

Q: With U49A G62C as the variant, how does the “self-cleavage kobs at 40 uM GlcN6P” value [1] read?
A: < 1e-05 s⁻¹

Q: And the “self-cleavage kobs at 10000 uM GlcN6P” value [4]?
A: < 1e-05 s⁻¹

Q: For C11A A42G A53C, which “self-cleavage kobs at 160 uM GlcN6P” value [5] is on record?
A: < 1e-05 s⁻¹

Q: Which “self-cleavage kobs at 160 uM GlcN6P” value [5] does the source give for G7C U45G G59A here?
A: < 1e-05 s⁻¹

Q: What about the “self-cleavage kobs at 640 uM GlcN6P” value [2] of the same variant?
A: < 1e-05 s⁻¹

Q: What about the “self-cleavage kobs at 2500 uM GlcN6P” value [3] of the same variant?
A: < 1e-05 s⁻¹

Q: And the “self-cleavage kobs at 10000 uM GlcN6P” value [4]?
A: < 1e-05 s⁻¹

Q: Which results are given for C11A A48U A52U?
A: self-cleavage kobs at 40 uM GlcN6P [1]: < 1e-05 s⁻¹; self-cleavage kobs at 10000 uM GlcN6P [4]: < 1e-05 s⁻¹

Q: What does the source list for G9U G43A G66U?
A: self-cleavage kobs at 160 uM GlcN6P [5]: < 1e-05 s⁻¹; self-cleavage kobs at 2500 uM GlcN6P [3]: < 1e-05 s⁻¹

Q: Which results are given for U31A C50G C58A?
A: self-cleavage kobs at 40 uM GlcN6P [1]: 5.39e-05 ± 1.9e-05 s⁻¹; self-cleavage kobs at 640 uM GlcN6P [2]: 0.00134 ± 0.00032 s⁻¹; self-cleavage kobs at 2500 uM GlcN6P [3]: 0.000414 ± 0.00012 s⁻¹

Q: With G40U C61U as the variant, how does the “self-cleavage kobs at 40 uM GlcN6P” value [1] read?
A: < 1e-05 s⁻¹

Q: And the “self-cleavage kobs at 160 uM GlcN6P” value [5]?
A: < 1e-05 s⁻¹

Q: How did the “self-cleavage kobs at 40 uM GlcN6P” value [1] turn out when C16A G29U U31C was run?
A: 3.38e-05 ± 1.4e-05 s⁻¹

Q: What about the “self-cleavage kobs at 10000 uM GlcN6P” value [4] of the same variant?
A: 0.000493 ± 0.00013 s⁻¹

Q: What does the source list for U30G A52C G62U?
A: self-cleavage kobs at 40 uM GlcN6P [1]: < 1e-05 s⁻¹; self-cleavage kobs at 10000 uM GlcN6P [4]: < 1e-05 s⁻¹

Q: What does the source list for G38A G40A U49G G60U?
A: self-cleavage kobs at 160 uM GlcN6P [5]: < 1e-05 s⁻¹; self-cleavage kobs at 640 uM GlcN6P [2]: < 1e-05 s⁻¹; self-cleavage kobs at 2500 uM GlcN6P [3]: < 1e-05 s⁻¹

Q: What does the source list for U54A C67G?
A: self-cleavage kobs at 40 uM GlcN6P [1]: 8.43e-05 ± 1.3e-05 s⁻¹; self-cleavage kobs at 160 uM GlcN6P [5]: 0.000213 ± 4.1e-05 s⁻¹; self-cleavage kobs at 640 uM GlcN6P [2]: 0.000297 ± 5.3e-05 s⁻¹; self-cleavage kobs at 2500 uM GlcN6P [3]: 0.000126 ± 2.2e-05 s⁻¹; self-cleavage kobs at 10000 uM GlcN6P [4]: 0.00147 ± 0.00055 s⁻¹

Q: Which results are given for G13C A36G A39U?
A: self-cleavage kobs at 40 uM GlcN6P [1]: < 1e-05 s⁻¹; self-cleavage kobs at 640 uM GlcN6P [2]: < 1e-05 s⁻¹; self-cleavage kobs at 2500 uM GlcN6P [3]: < 1e-05 s⁻¹

Q: Which “self-cleavage kobs at 40 uM GlcN6P” value [1] does the source give for G38A C58A G66A here?
A: < 1e-05 s⁻¹

Q: And the “self-cleavage kobs at 10000 uM GlcN6P” value [4]?
A: < 1e-05 s⁻¹

Q: C10G G41C was tested. Which “self-cleavage kobs at 40 uM GlcN6P” value [1] did it give?
A: < 1e-05 s⁻¹

Q: What about the “self-cleavage kobs at 160 uM GlcN6P” value [5] of the same variant?
A: < 1e-05 s⁻¹

Q: And the “self-cleavage kobs at 640 uM GlcN6P” value [2]?
A: < 1e-05 s⁻¹

Q: And the “self-cleavage kobs at 2500 uM GlcN6P” value [3]?
A: < 1e-05 s⁻¹

Q: And the “self-cleavage kobs at 10000 uM GlcN6P” value [4]?
A: < 1e-05 s⁻¹

Q: U31G A33U U47G was tested. Which “self-cleavage kobs at 160 uM GlcN6P” value [5] did it give?
A: < 1e-05 s⁻¹
